In the supplement of paper PMC9876800:

Test system: peptide library, one residue held at a place counted from the S/T acceptor
Experiment: relative phosphorylation of the sub-library (ratio to the mean residue at this position); higher = residue favoured
How it was run: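 Each biotinylated degenerate peptide sub-library fixed one residue at one position around a central Ser/Thr and was incubated with a purified recombinant kinase, a human or orthologue construct, in 384-well plates. The 90 min reactions, under kinase-specific conditions, contained 50 μM peptide and 50 μM ATP spiked with γ-32P-ATP. Phosphorylation was read by phosphorimaging spots on streptavidin membranes and quantifying them by densitometry. Relative sub-library phosphorylation expresses each value as a ratio to the mean residue at that position.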

CDC42BPA, construct: aa1-473, human (from UniProt Q5VT25)
relative phosphorylation
Details | at +1 | at +2 | at +3 | at +4 | at -1 | at -2 | at -3 | at -4 | at -5
A fixed | 0.571 | 0.98 | 0.605 | 0.722 | 0.552 | 0.403 | 0.476 | 0.689 | 0.776
D fixed | 0.475 | 0.764 | 0.723 | 0.799 | 0.668 | 0.306 | 0.342 | 0.53 | 0.483
E fixed | 0.435 | 0.379 | 0.701 | 0.719 | 0.436 | 0.226 | 0.23 | 0.498 | 0.321
F fixed | 0.802 | 1.2 | 1.15 | 1.1 | 0.645 | 0.519 | 0.424 | 0.758 | 0.814
G fixed | 0.849 | 1.06 | 1.32 | 0.933 | 0.984 | 0.431 | 0.442 | 0.765 | 0.629
H fixed | 0.961 | 1.06 | 1.27 | 1.17 | 1.27 | 1.25 | 1.3 | 1.22 | 1.04
I fixed | 1.61 | 1.56 | 0.911 | 0.783 | 0.453 | 0.267 | 0.295 | 0.651 | 0.688
K fixed | 0.961 | 1.01 | 1.56 | 1.21 | 2.71 | 2.5 | 2.6 | 2.28 | 3.39
L fixed | 1.79 | 1.52 | 0.789 | 0.94 | 1.33 | 0.416 | 0.329 | 0.709 | 0.771
M fixed | 1.45 | 0.918 | 0.745 | 0.872 | 1.01 | 0.507 | 0.354 | 0.803 | 0.632
N fixed | 1.84 | 0.88 | 0.914 | 1.15 | 1.15 | 0.855 | 0.534 | 0.893 | 0.688
P fixed | 0.35 | 1.1 | 0.983 | 1.2 | 1.28 | 0.482 | 0.496 | 0.995 | 0.666
Q fixed | 1.18 | 0.681 | 1.3 | 1.06 | 1.13 | 0.973 | 0.75 | 0.847 | 0.911
R fixed | 1.17 | 0.868 | 1.01 | 1.04 | 1.45 | 5.97 | 7.05 | 3.1 | 2.99
V fixed | 0.898 | 1.08 | 0.702 | 0.777 | 0.529 | 0.292 | 0.282 | 0.641 | 0.586
W fixed | 0.867 | 0.952 | 1.12 | 1.53 | 0.605 | 0.852 | 0.622 | 0.902 | 0.809
Y fixed | 0.786 | 1.01 | 1.18 | 0.99 | 0.798 | 0.744 | 0.469 | 0.718 | 0.814
pThr fixed | 0.636 | 0.97 | 0.873 | 1.38 | 0.283 | 0.304 | 0.369 | 0.547 | 0.552
pTyr fixed | 1.24 | 0.795 | 0.785 | 1.13 | 0.396 | 0.353 | 0.378 | 0.441 | 0.391

CDK2, construct: Full length, human (from UniProt P24941)
relative phosphorylation
Details | at +1 | at +2 | at +3 | at +4 | at -1 | at -2 | at -3 | at -4 | at -5
A fixed | 0.422 | 0.748 | 0.457 | 0.579 | 0.947 | 0.875 | 1.06 | 1.02 | 1.03
D fixed | 0.304 | 0.611 | 0.279 | 0.735 | 1.08 | 0.754 | 0.692 | 1.01 | 1.09
E fixed | 0.304 | 0.544 | 0.265 | 0.591 | 0.846 | 0.701 | 0.887 | 1.08 | 0.998
F fixed | 0.365 | 0.976 | 0.438 | 0.837 | 1.1 | 1.29 | 0.928 | 1.08 | 1.01
G fixed | 0.923 | 0.664 | 0.497 | 1.13 | 1.39 | 0.891 | 1.6 | 1.03 | 0.824
H fixed | 0.367 | 1.28 | 0.871 | 1.04 | 0.879 | 1.21 | 1.3 | 1.21 | 1.17
I fixed | 0.409 | 0.781 | 0.325 | 0.92 | 0.428 | 0.804 | 0.877 | 0.911 | 0.684
K fixed | 0.439 | 1.91 | 8.59 | 1.62 | 1.01 | 0.798 | 0.839 | 1.02 | 1.17
L fixed | 0.384 | 0.947 | 0.358 | 1.12 | 1.02 | 1.27 | 0.88 | 0.911 | 0.787
M fixed | 0.407 | 1.09 | 0.405 | 1.3 | 1.02 | 1.27 | 0.895 | 0.814 | 0.8
N fixed | 0.402 | 1.08 | 0.524 | 1.06 | 1.01 | 0.963 | 0.91 | 0.888 | 0.813
P fixed | 10.1 | 0.384 | 0.626 | 0.731 | 0.7 | 1.3 | 0.804 | 0.589 | 1.1
Q fixed | 0.499 | 1.47 | 0.665 | 1.17 | 1.37 | 1.09 | 1.18 | 1.18 | 1.13
R fixed | 0.494 | 1.94 | 1.49 | 0.939 | 1.3 | 0.684 | 0.88 | 0.829 | 1.06
V fixed | 0.516 | 1.08 | 0.392 | 0.977 | 0.643 | 0.892 | 1.04 | 0.907 | 1
W fixed | 0.326 | 0.667 | 0.429 | 1.32 | 1.34 | 1.19 | 1.2 | 1.4 | 1.13
Y fixed | 0.33 | 0.82 | 0.393 | 0.935 | 0.92 | 1.01 | 1.03 | 1.1 | 1.19
pThr fixed | 1.22 | 0.953 | 1.31 | 0.611 | 0.373 | 0.917 | 1.01 | 0.787 | 0.965
pTyr fixed | 2.21 | 0.603 | 1.1 | 0.825 | 0.766 | 1.63 | 1.13 | 0.938 | 0.898
